1 molecule from paper PMC7699647, “Nucleocapsid protein of SARS-CoV-2 phase separates into RNA-rich polymerase-containing condensates” can be followed below.

The target of this data set is nsp12;nsp7;nsp8 (SARS-CoV-2;SARS-CoV-2;SARS-CoV-2, UniProt P0DTD1;P0DTD1;P0DTD1 4393-5324;3860-3942;3943-4140, ||). The data set is described as follows: size exclusion chromatography; 20 mM Na-HEPES pH 7.4, 100 mM NaCl, 1 mM MgCl2, 1 mM TCEP; NMR: 50 mM NaP, 0.01% NaN3, 5% D2O, 5 C; phase separation: 20 mM NaPi pH 7.5. The settings on record: protein: recombinant;recombinant;recombinant; tags: 6xHis-MBP removed by TEV;His tag removed by TEV;His tag removed by TEV; copies: 1;1;2; label: 5' 6-FAM on strand 2; 5' overhang 11 nt on strand 1; other end blunt.

B1: RdRp RNA scaffold (minimal RNA hairpin) (dsRNA)
RNA 1: UUUUCAUGCAUCGCGUAGGCUCAUACCGUAUUGAGA
RNA 2: UCUCAAUACGGUAUGAGCCUACGCG
As to B1, the binding result was “binds”.
